The values that follow come from patent US20150344570A1 (published 2015).

In assay [1] the target is T1, FcγRIa extracellular domain with C-terminal His tag (human, UniProt P12314 16-292).
T1 construct: extracellular domain; soluble analyte in Biacore; also called FcgRI; not shown: His tag at the C terminus
The assay can be described thus: SPR; He/Con_1a divided by He/Con_2b (FcγRIa against FcγRIIb). Here is the method: (§1) The heterodimerized antibodies He Abs in which one of the H chains was introduced with an alteration were assayed for their binding activities to each activating FcγR and inhibitory FcγR according to the method described in Example 4. […] The activating FcγRs in FIGS. 26, 27, 28, and 29 are FcγRIa, FcγRIIa (R), FcγRIIa (H), and FcγRIIIa, respectively.
(§2) Analysis of interaction between objective antibody and the FcγR was carried out using Biacore T100 (GE Healthcare). HBS-EP+ (GE Healthcare) was used as the running buffer, and the measurement temperature was set to 25° C. Chips produced by immobilizing the antigen peptide by the amine coupling method to a Series S Sencor Chip CM5 (GE Healthcare), or alternatively, chips produced by allowing preliminarily biotinylated antigen peptides to interact with and immobilize onto a Series S Sensor Chip SA (certified) (GE Healthcare) were used. Antibodies of interest were captured onto an antigen peptide-immobilized chip, and allowed to interact to each FcγR diluted with running buffer. To regenerate and repeatedly use the chip, the antibodies captured on the chip were washed off by reacting 10 mM glycine-HCl, pH 1.5.

Assay [2] has as its target T2, FcγRIIb extracellular domain with C-terminal His tag (human, UniProt P31994 43-217).
T2 construct: extracellular domain; soluble analyte in Biacore; also called FcgRIIb; not shown: His tag at the C terminus
T2 sequence (looked up): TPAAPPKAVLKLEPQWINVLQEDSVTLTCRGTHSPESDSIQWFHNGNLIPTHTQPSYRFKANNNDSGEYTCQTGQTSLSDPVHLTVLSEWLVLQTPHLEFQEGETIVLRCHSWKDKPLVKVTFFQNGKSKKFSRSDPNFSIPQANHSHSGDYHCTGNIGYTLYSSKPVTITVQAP
The assay can be described thus: SPR, binding relative to GpH7-A5/GpH7-B3/GpL16-k0 = 100. A general note: Surface plasmon resonance follows binding to a sensor surface in real time, without labels.

Assay [3] deals with T1, FcγRIa extracellular domain with …. The description is as above.
Assay [4] addresses T3, FcγRIIa H (human, UniProt P12318 34-217).
T3 construct: extracellular domain; also called FcgRIIa H; 2aH; not shown: His tag attached to the C terminus
T3 sequence (looked up): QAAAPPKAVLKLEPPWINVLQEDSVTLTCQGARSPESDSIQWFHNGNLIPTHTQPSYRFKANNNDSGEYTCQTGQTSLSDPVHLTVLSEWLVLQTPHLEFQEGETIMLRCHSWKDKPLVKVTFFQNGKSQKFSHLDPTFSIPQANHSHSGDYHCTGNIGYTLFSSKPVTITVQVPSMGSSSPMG
The assay can be described thus: SPR; He/Con for FcγRIIa H divided by He/Con for FcγRIIb.

Assay [5] concerns the target T3, FcγRIIa H. The assay can be described thus: SPR (Biacore), antibody captured on antigen peptide chip, FcγR as analyte; relative binding activity. Here is the method: as §1, §2
In another assay the target is T4, FcγRIIb (human, UniProt P31994 43-217).
T4 construct: extracellular domain; also called FcgRIIb; 2b; not shown: His tag attached to the C terminus
T4 sequence (looked up): T2 sequence (looked up)
The assay is described as above. Here is the method: as §1, §2

T1 sequence (P12314 16-292): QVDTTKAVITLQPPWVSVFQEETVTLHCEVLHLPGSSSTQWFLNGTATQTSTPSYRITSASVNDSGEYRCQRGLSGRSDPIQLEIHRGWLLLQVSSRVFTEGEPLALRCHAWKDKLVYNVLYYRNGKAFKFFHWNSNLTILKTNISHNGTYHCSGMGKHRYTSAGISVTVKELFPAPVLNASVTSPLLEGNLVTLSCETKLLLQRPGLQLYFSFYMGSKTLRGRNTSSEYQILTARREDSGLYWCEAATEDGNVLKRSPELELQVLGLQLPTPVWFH

B1: GpH7-A5/GpH7-B3 variant E269_20W/GpL16-k0 (antibody, human IgG1, kappa)
heavy 1: not shown
heavy 2: not shown
light: DIVMTQSPLSLPVTPGEPASISCQASESLVHSNRNTYLHWYLQKPGQSPQLLIYKVSNRFSGVPDRFSGSGSGTDFTLKISRVEAEDVGVYYCSQNTHVPPTFGQGTKVEIERTVAAPSVFIFPPSDEQLKSGTASVVCLLNNFYPREAKVQWKVDNALQSGNSQESVTEQDSKDSTYSLSSTLTLSKADYEKHKVYACEVTHQGLSSPVTKSFNRGEC
notes: change in the GpH7-B3 H chain only; also called He Ab
B1: in assay [1], the “He_1a/2b (Ia/IIb)” value was 2.47 ratio. Besides, the He/Con_2b in assay [2] is 42.5 % of control. Besides, the He/Con_1a in assay [3] is 105 % of control.

B2: GpH7-A5/GpH7-B3 variant D265_02A/GpL16-k0 (antibody, human IgG1, kappa)
heavy 1: not shown
heavy 2: not shown
light: B1 light
notes: Heterodimerized anti-glypican-3 IgG1; mutation in one H chain only; also called He Ab
In the case of B2, the “He_2aH/2b (IIaH/IIb)” value in the assay with FcγRIIa H [4] worked out at 1.58 ratio. Besides, in the assay with FcγRIIa H [5], the He/Con_2aH was 31.3 % of GpH7-A5/GpH7-B3/GpL16-k0 (=100). Moreover, the He/Con_2b in the assay with FcγRIIb was 19.9 % of GpH7-A5/GpH7-B3/GpL16-k0 (=100).

B3: GpH7-A5/GpH7-B3 variant D265_15Y/GpL16-k0 (antibody, human IgG1, kappa)
heavy 1: not shown
heavy 2: not shown
light: B1 light
notes: as for B2
Consider B3, for which, in the assay with FcγRIIa H [4], the “He_2aH/2b (IIaH/IIb)” value came to 6.07 ratio. The He/Con_2aH with FcγRIIa H [5] is 3.7 % of GpH7-A5/GpH7-B3/GpL16-k0 (=100). Moreover, the He/Con_2b with FcγRIIb was 0.6 % of GpH7-A5/GpH7-B3/GpL16-k0 (=100).

B4: GpH7-A5/GpH7-B3 variant G236_19Q/GpL16-k0 (antibody, human IgG1, kappa)
heavy 1: not shown
heavy 2: not shown
light: B1 light
notes: as for B2
In the case of B4, the “He_2aH/2b (IIaH/IIb)” value with FcγRIIa H [4] amounted to 1.91 ratio. Further, in the assay with FcγRIIa H [5], the He/Con_2aH was 89.1 % of GpH7-A5/GpH7-B3/GpL16-k0 (=100). The He/Con_2b with FcγRIIb is 46.6 % of GpH7-A5/GpH7-B3/GpL16-k0 (=100).

B5: GpH7-A5/GpH7-B3 variant D265_12R/GpL16-k0 (antibody, human IgG1, kappa)
heavy 1: not shown
heavy 2: not shown
light: B1 light
notes: as for B2
For the molecule B5, in the assay with FcγRIIa H [4], the “He_2aH/2b (IIaH/IIb)” value was 1.87 ratio. Moreover, in the assay with FcγRIIa H [5], the He/Con_2aH was 28 % of GpH7-A5/GpH7-B3/GpL16-k0 (=100). In the assay with FcγRIIb, the He/Con_2b is 15 % of GpH7-A5/GpH7-B3/GpL16-k0 (=100).

B6: GpH7-A5/GpH7-B3 variant D265_16H/GpL16-k0 (antibody, human IgG1, kappa)
heavy 1: not shown
heavy 2: not shown
light: B1 light
notes: as for B2
B6: the “He_2aH/2b (IIaH/IIb)” value in the assay with FcγRIIa H [4] came out at 1.27 ratio. In addition, in the assay with FcγRIIa H [5], the He/Con_2aH was 48.6 % of GpH7-A5/GpH7-B3/GpL16-k0 (=100). The He/Con_2b with FcγRIIb was 38.3 % of GpH7-A5/GpH7-B3/GpL16-k0 (=100).

B7: GpH7-A5/GpH7-B3 variant D265_20W/GpL16-k0 (antibody, human IgG1, kappa)
heavy 1: not shown
heavy 2: not shown
light: B1 light
notes: as for B2
Regarding B7, the “He_2aH/2b (IIaH/IIb)” value with FcγRIIa H [4] was determined as 2.86 ratio. Also, the He/Con_2aH in the assay with FcγRIIa H [5] was 3.2 % of GpH7-A5/GpH7-B3/GpL16-k0 (=100). Also, the He/Con_2b with FcγRIIb is 1.1 % of GpH7-A5/GpH7-B3/GpL16-k0 (=100).

B8: GpH7-A5/GpH7-B3 variant P271_06M/GpL16-k0 (antibody, human IgG1, kappa)
heavy 1: not shown
heavy 2: not shown
light: B1 light
notes: as for B1
With B8, the “He_1a/2b (Ia/IIb)” value in assay [1] came out at 1.32 ratio. The He/Con_2b in assay [2] was 77.5 % of control. Moreover, the He/Con_1a in assay [3] was 102 % of control.

B9: GpH7-A5/GpH7-B3 variant D265_13S/GpL16-k0 (antibody, human IgG1, kappa)
heavy 1: not shown
heavy 2: not shown
light: B1 light
notes: as for B2
For the molecule B9, in the assay with FcγRIIa H [4], the “He_2aH/2b (IIaH/IIb)” value came out at 1.75 ratio. In addition, the He/Con_2aH in the assay with FcγRIIa H [5] is 19.8 % of GpH7-A5/GpH7-B3/GpL16-k0 (=100). For the same molecule, the He/Con_2b with FcγRIIb is 11.3 % of GpH7-A5/GpH7-B3/GpL16-k0 (=100).

B10: GpH7-A5/GpH7-B3 variant D265_11K/GpL16-k0 (antibody, human IgG1, kappa)
heavy 1: not shown
heavy 2: not shown
light: B1 light
notes: as for B2
With B10, the “He_2aH/2b (IIaH/IIb)” value with FcγRIIa H [4] came to 1.87 ratio. Besides, in the assay with FcγRIIa H [5], the He/Con_2aH was 27.8 % of GpH7-A5/GpH7-B3/GpL16-k0 (=100). Moreover, the He/Con_2b with FcγRIIb was 14.9 % of GpH7-A5/GpH7-B3/GpL16-k0 (=100).

B11: GpH7-A5/GpH7-B3 variant G236_16H/GpL16-k0 (antibody, human IgG1, kappa)
heavy 1: not shown
heavy 2: not shown
light: B1 light
notes: as for B2
Turning to B11, the “He_2aH/2b (IIaH/IIb)” value with FcγRIIa H [4] came out at 3.51 ratio. The He/Con_2aH with FcγRIIa H [5] was 98.2 % of GpH7-A5/GpH7-B3/GpL16-k0 (=100). In addition, in the assay with FcγRIIb, the He/Con_2b was 27.9 % of GpH7-A5/GpH7-B3/GpL16-k0 (=100).

B12: GpH7-A5/GpH7-B3 variant H268_08L/GpL16-k0 (antibody, human IgG1, kappa)
heavy 1: not shown
heavy 2: not shown
light: B1 light
notes: as for B2
With B12, in the assay with FcγRIIa H [4], the “He_2aH/2b (IIaH/IIb)” value was 1.25 ratio. Besides, in the assay with FcγRIIa H [5], the He/Con_2aH was 85 % of GpH7-A5/GpH7-B3/GpL16-k0 (=100). The He/Con_2b with FcγRIIb was 67.8 % of GpH7-A5/GpH7-B3/GpL16-k0 (=100).

B13: GpH7-A5/GpH7-B3 variant P271_03V/GpL16-k0 (antibody, human IgG1, kappa)
heavy 1: not shown
heavy 2: not shown
light: B1 light
notes: as for B1
With B13, in assay [1], the “He_1a/2b (Ia/IIb)” value was determined as 1.37 ratio. Also, in assay [2], the He/Con_2b is 74.8 % of control. Further, in assay [3], the He/Con_1a is 102 % of control.

B14: GpH7-A5/GpH7-B3 variant E269_01G/GpL16-k0 (antibody, human IgG1, kappa)
heavy 1: not shown
heavy 2: not shown
light: B1 light
notes: as for B2
On to B14, for which the “He_2aH/2b (IIaH/IIb)” value with FcγRIIa H [4] stood at 1.39 ratio. Further, in the assay with FcγRIIa H [5], the He/Con_2aH is 71.5 % of GpH7-A5/GpH7-B3/GpL16-k0 (=100). In addition, the He/Con_2b with FcγRIIb was 51.5 % of GpH7-A5/GpH7-B3/GpL16-k0 (=100).
